PMC6286387, “Physical and thermodynamic characterization of the rice gibberellin receptor/gibberellin/DELLA protein complex” (Scientific Reports, 2018)
Blank lines part the entries; values can stand above or below the molecule they belong to.

How the values were obtained:
[1] = molecular target: T1, OsGID1 (Oryza sativa, UniProt Q6L545); test: (method not stated for the binary complex); assay type: binding; conditions: read-out: Kb (converted)
T1 construct: gene GID1; recombinant, purified
T1 sequence (Q6L545 1-354): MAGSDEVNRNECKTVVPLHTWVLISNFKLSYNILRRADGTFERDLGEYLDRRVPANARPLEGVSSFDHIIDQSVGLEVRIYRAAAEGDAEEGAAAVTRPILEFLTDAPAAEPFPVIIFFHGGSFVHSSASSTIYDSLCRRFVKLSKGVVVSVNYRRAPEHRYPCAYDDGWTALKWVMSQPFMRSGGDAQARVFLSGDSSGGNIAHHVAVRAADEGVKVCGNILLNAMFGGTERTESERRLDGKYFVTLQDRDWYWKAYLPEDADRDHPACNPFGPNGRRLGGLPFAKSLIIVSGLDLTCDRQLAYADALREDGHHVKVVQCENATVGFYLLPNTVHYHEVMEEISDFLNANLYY

[2] = molecular target: T2, OsGID1 (rice gibberellin receptor GID1), Trx-free, used as the OsGID1/GA3 complex (rice (Oryza sativa), UniProt Q6L545 1-354); test: ITC; 10 μl aliquants of 400 μM OsGID1/GA3 into 1.4482 ml of 50 μM SLR1 variant, 30 °C, 20 mM sodium phosphate (pH 7.5), 150 mM NaCl, 2.0 mM β-ME, 0.1 mM GA3; conditions: both partners purified
T2 construct: Gibberellin receptor GID1 of rice (Oryza sativa); theoretical MW of the dimer printed as 79.2 kDa; The printed mass (39.6 kDa a monomer) fits the whole protein; source: recombinant, purified
T2 sequence (looked up): T1 sequence (Q6L545 1-354)

[3] = molecular target: the molecule itself; test: SEC; each protein chromatographed alone on Superdex 200 10/300 GL, 20 mM sodium phosphate (pH 7.5), 150 mM NaCl, 2 mM β-ME, 0.1 mM GA3; size against molecular weight standards
[4] = molecular target: T3, Trx-OsGID1, used as the Trx-OsGID1/GA3 complex (rice (Oryza sativa), UniProt Q6L545 1-354); test: SEC; purified Trx-OsGID1 and a Trx-SLR1 truncation mutant incubated together at 4 °C for 30 min with 10^-4 M GA3; Superdex 200 10/300 GL in 20 mM sodium phosphate (pH 7.5), 150 mM NaCl, 2 mM β-ME, 0.1 mM GA3; fractions on SDS-PAGE; conditions: both partners purified
T3 construct: Gibberellin receptor GID1 of rice (Oryza sativa); GA3 (0.1 mM) was present in the gel filtration; also called Trx-GID1/GA3; source: recombinant, purified
T3 sequence (looked up): T1 sequence (Q6L545 1-354)

[5] = molecular target: T2, OsGID1 (rice gibberellin receptor …); test: ITC; twenty 10 μl injections of 400 μM SLR1(M28-A112) into 50 μM OsGID1/GA3, 30 °C, 20 mM sodium phosphate (pH 7.5), 150 mM NaCl, 2.0 mM β-ME, 0.1 mM GA3; conditions: both partners purified
[6] = molecular target: T2, OsGID1 (rice gibberellin receptor …); test: ITC; 10 μl aliquants of 400 μM OsGID1/GA3 into 1.4482 ml of 50 μM SLR1 variant, 30 °C, 20 mM sodium phosphate (pH 7.5), 150 mM NaCl, 2.0 mM β-ME, 0.1 mM GA3; conditions: both partners purified; remark: listed apart in the source
[7] = molecular target: the molecule itself; test: ITC; dilution series: 10 μl aliquants of 0.4 mM SLR1(M28-A112) into 1.4482 ml of buffer without OsGID1/GA3, 30 °C; dimer to monomers

B1: SLR1(M28-A112) ΔSPACE(G69-F83) (domain or fragment, rice (Oryza sativa), UniProt Q7G7J6 28-112, looked up)
chain: MAGAAGEEEDVDELLAALGYKVRSSDMADVAQKLEQLEMAMVSHLATDTVHYNPSDLSSWVESMLSELNA
notes: DELLA protein SLR1 of rice (Oryza sativa), residues M28-A112 with G69-F83 deleted; Named without Trx in the ITC experiments; removal of the tag is told in general in the methods; also called SLR(M28-A112)ΔSPACE; source: E. coli, purified (HiTrap Chelating, Superdex 200; thrombin, HiTrap Chelating, Superdex 75); not shown: Trx, N-terminal, cleaved; His6, N-terminal, cleaved
- Ka [2]: 390000 M⁻¹

B2: Trx-SLR1(M1-E104) (domain or fragment, rice (Oryza sativa), UniProt Q7G7J6 1-104, looked up)
chain: MKREYQEAGGSSGGGSSADMGSCKDKVMAGAAGEEEDVDELLAALGYKVRSSDMADVAQKLEQLEMAMGMGGVSAPGAADDGFVSHLATDTVHYNPSDLSSWVE
notes: DELLA protein SLR1 of rice (Oryza sativa), residues M1-E104; Thioredoxin-hexahistidine fusion from the vector pDEST-trx; source: E. coli, purified (HiTrap Chelating, Superdex 200); not shown: Trx, N-terminal, kept; His6, N-terminal, kept
- stoichiometry N [3]: 2

B3: SLR1(M1-A172) (domain or fragment, rice (Oryza sativa), UniProt Q7G7J6 1-172, looked up)
chain: MKREYQEAGGSSGGGSSADMGSCKDKVMAGAAGEEEDVDELLAALGYKVRSSDMADVAQKLEQLEMAMGMGGVSAPGAADDGFVSHLATDTVHYNPSDLSSWVESMLSELNAPLPPIPPAPPAARHASTSSTVTGGGGSGFFELPAAADSSSSTYALRPISLPVVATADPSA
notes: DELLA protein SLR1 of rice (Oryza sativa), residues M1-A172; Named without Trx in the ITC experiments; removal of the tag is told in general in the methods; also called SLR(M1-A172); source: E. coli, purified (HiTrap Chelating, Superdex 200; thrombin, HiTrap Chelating, Superdex 75); not shown: Trx, N-terminal, cleaved; His6, N-terminal, cleaved
- Ka [2]: 2.8e+07 M⁻¹

B4: SLR1(M1-H327) (domain or fragment, rice (Oryza sativa), UniProt Q7G7J6 1-327, looked up)
chain: MKREYQEAGGSSGGGSSADMGSCKDKVMAGAAGEEEDVDELLAALGYKVRSSDMADVAQKLEQLEMAMGMGGVSAPGAADDGFVSHLATDTVHYNPSDLSSWVESMLSELNAPLPPIPPAPPAARHASTSSTVTGGGGSGFFELPAAADSSSSTYALRPISLPVVATADPSAADSARDTKRMRTGGGSTSSSSSSSSSLGGGASRGSVVEAAPPATQGAAAANAPAVPVVVVDTQEAGIRLVHALLACAEAVQQENFAAAEALVKQIPTLAASQGGAMRKVAAYFGEALARRVYRFRPADSTLLDAAFADLLHAHFYESCPYLKFAH
notes: DELLA protein SLR1 of rice (Oryza sativa), residues M1-H327; Named without Trx in the ITC experiments; removal of the tag is told in general in the methods; also called SLR(M1-H327); source: E. coli, purified (HiTrap Chelating, Superdex 200; thrombin, HiTrap Chelating, Superdex 75); not shown: Trx, N-terminal, cleaved; His6, N-terminal, cleaved
- Ka [2]: 2e+06 M⁻¹

B5: Trx-SLR1(M1-L110) (domain or fragment, rice (Oryza sativa), UniProt Q7G7J6 1-110, looked up)
chain: MKREYQEAGGSSGGGSSADMGSCKDKVMAGAAGEEEDVDELLAALGYKVRSSDMADVAQKLEQLEMAMGMGGVSAPGAADDGFVSHLATDTVHYNPSDLSSWVESMLSEL
notes: DELLA protein SLR1 of rice (Oryza sativa), residues M1-L110; Thioredoxin-hexahistidine fusion from the vector pDEST-trx; source: E. coli, purified (HiTrap Chelating, Superdex 200); not shown: Trx, N-terminal, kept; His6, N-terminal, kept
- binding result [3]: binds
- binding result [4]: binds

B6: Trx-SLR1(M28-A112) (domain or fragment, rice (Oryza sativa), UniProt Q7G7J6 28-112, looked up)
chain: MAGAAGEEEDVDELLAALGYKVRSSDMADVAQKLEQLEMAMGMGGVSAPGAADDGFVSHLATDTVHYNPSDLSSWVESMLSELNA
notes: DELLA protein SLR1 of rice (Oryza sativa), residues M28-A112; theoretical monomeric MW of the fusion 29.3 kDa; Thioredoxin-hexahistidine fusion from the vector pDEST-trx; source: E. coli, purified (HiTrap Chelating, Superdex 200); not shown: Trx, N-terminal, kept; His6, N-terminal, kept
- stoichiometry N [3]: 2
- stoichiometry N [4]: 1

B7: SLR1(M28-A112), Trx-free (domain or fragment, rice (Oryza sativa), UniProt Q7G7J6 28-112, looked up)
chain: B6 chain
notes: DELLA protein SLR1 of rice (Oryza sativa), residues M28-A112; 13C/15N-labelled for the NMR spectra; also called SLR(M28-A112); source: E. coli, purified (HiTrap Chelating, Superdex 200; thrombin, HiTrap Chelating, Superdex 75); not shown: Trx, N-terminal, cleaved; His6, N-terminal, cleaved
- Ka [5]: 1.2e+07 M⁻¹
- dH [5]: -8.75 kcal/mol
- stoichiometry N [5]: 0.88
- Ka [6]: 1.1e+07 M⁻¹
- Kd [7]: 1600 µM
- dH [7]: -66 kcal/mol
- Ka [2]: 2.9e+07 M⁻¹

The remaining lines, values ahead:

- Kd [1]: 3.57 µM
Molecule: C=C1C[C@]23C[C@@]1(O)CC[C@H]2[C@@]12C=C[C@H](O)[C@@](C)(C(=O)O1)[C@H]2[C@@H]3C(=O)O [GA3]

- Kd [1]: 1.92 µM
Molecule: C=C1C[C@]23C[C@@]1(O)CC[C@H]2[C@@]12CC[C@H](O)[C@@](C)(C(=O)O1)[C@H]2[C@@H]3C(=O)O [GA1]

- Kd [1]: 0.238 µM
Molecule: C=C1C[C@]23C[C@H]1CC[C@H]2[C@@]12C=C[C@H](O)[C@@](C)(C(=O)O1)[C@H]2[C@@H]3C(=O)O [GA7]

- Kd [1]: 0.192 µM
Molecule: C=C1C[C@]23C[C@H]1CC[C@H]2[C@@]12CC[C@H](O)[C@@](C)(C(=O)O1)[C@H]2[C@@H]3C(=O)O [GA4]
